In US10240123B2, “Method for preparing induced paraxial mesoderm progenitor (IPAM) cells and their use” (INSERM (INSTITUT NATIONAL DE LA SANTE ET DE LA RECHERCHE …, priority 2011, dated 2019):
“Also recorded” adds a separate entry of the source.

How the values were obtained:
Msgn1RepV mouse ES cells = assay: Msgn1RepV reporter mouse ES cell differentiation, YFP+ (iPAM) cells by flow cytometry; format: cell-based; conditions: for effect on number of YFP+ cells (iPAM induction): 4 days of differentiation
Procedure: Undifferentiated mouse ES cells […] derived) were maintained on gelatin-coated dishes in DMEM supplemented with 15% fetal bovine serum (FBS; from PAA), penicillin, streptomycin, 2 mM L-Glutamine, 0.1 mM non essential amino acids, 1 mM sodium pyruvate, 0.2% β-mercaptoethanol and 1,500 U/mL LIF. ES cells were co-cultured with mytomicin-inactivated MEFs (feeders). Undifferentiated human ES cells were cultured on plates coated with matrigel (BD Biosciences) in mTeSR medium ([…] Technologies). Cultures were maintained in an incubator in 5% CO2 at 37° C. ES cells were trypsinized and plated at various densities in gelatin coated, feeder-free, 24 well plates directly in serum-based (15% FBS) or serum-replacement (15% KSR, Invitrogen) conditions supplemented with factors, and DMSO (Sigma). Recombinant proteins were obtained commercially (R&D) and stock solutions were prepared according to manufacturer's recommendation. The GSK-3ß inhibitor CHIR99021 and the BMP type I receptors inhibitor Dorsomorphin were purchased from Stemgent and prepared according to the manufacturer's recommendations. Fluorescent reporter analysis and image acquisition were done on a Zeiss Axiovert system. Cell cultures were dissociated by trypsinization, analyzed by flow cytometry on a FACScalibur (BD Biosciences) according to YFP expression. Data were further analyzed with MoFlo software (Beckman Coulter) and FlowJo software. In order to optimize the differentiation conditions for paraxial mesoderm progenitors, we developed a manual screening assay, testing candidate growth factors and drugs interfering with various signaling pathways on ES cells. The […] reporter cells were plated at a defined density in 24-well plates coated with gelatin (0.1%). Two basal culture media were selected: a DMEM based medium containing 15% fetal bovine serum (FBS, high serum) and a defined serum-free medium containing 15% KSR (Invitrogen/Gibco). These basal media were supplemented with candidate factors on day 0 of differentiation. Control and experimental conditions were cultured in parallel. Cells were left to differentiate for three to four days with medium changed on day 2 or 3. Cell cultures were analyzed on day 3 and 4 of differentiation visually and by flow cytometry for YFP+ population quantification.

BMP4 = BMP4 and PSM marker expression in Msgn1-YFP+ cells (microarray, qRT-PCR); format: cell-based, mouse; conditions: for iPAM maturation, PSM specific marker expression: added to differentiation medium
Procedure: Mouse E9.5 embryo PSMs were microdissected and processed as previously described (Krol et al, 2011), and prepared samples were run on Affymetrix GeneChip arrays. For differentiated cell cultures, iPAMs were sorted by flow-cytometry based on their Msgn1-YFP+ expression, and samples were prepared for microarrays. Experiments were conducted on biological triplicates. Datasets were processed using Affymetrix Microarray Suite (MAS) 5.0. Total RNA was extracted from ES cell cultures using Trizol (Invitrogen) or with the […] plus mini-kit (Qiagen). RT-PCR was performed on 5 ng total RNA using QuantiFast SYBR Green RT-PCR Kit (Qiagen), appropriate primers and run on a LightCycler 480II (Roche). GAPDH was used as the internal control. To counteract this BMP4 activity, we tested the effect of addition of recombinant Noggin (Nog) protein known to inhibit BMP4, to the differentiation medium. […] We further defined both the optimal concentration and timing of Noggin addition. […] To better characterize the impact of Noggin on Msgn1-YFP+ cells, we performed microarrays on the Msgn1-YFP+ induced paraxial mesoderm progenitors (iPAM) population at day 3 and 4 of differentiation (FIG. 11, compare conditions RDN and RD). We screened a set of BMP inhibitors, including recombinant proteins Noggin (Nog), Chordin (Chd), Chordin-like 1 (Chdl1), Follistatin (Fst), Follistatin-like 1 (Fstl1), Dan family protein including Cerberus 1 (Cerberus) and Gremlin 1 (Grem1); at varying concentration range (10-200 ng/mL), and various time-window (day 0-4, day 1-4) and analyzed the impact on BMP4 and the PSM marker Tbx6 expression. Additionally, we tested the chemical compound Dorsomorphin (Compound C), a specific BMP type I receptor inhibitor, at various concentration (0.1-1 μM) and various time-window (day 0-4, day 1-4).

canonical Wnt signaling = assay: BAT-luc luciferase reporter for canonical Wnt signaling in ES cells; format: cell-based, mouse; conditions: Rspo3 10 ng/mL, 1% FBS medium
HUES1 cells = assay: qRT-PCR of paraxial mesoderm progenitor markers in differentiating human ES cells; format: cell-based; conditions: 15% FBS containing medium, 3 to 10 days of culture
Procedure: Comparison of the expression of paraxial mesoderm progenitor markers Brachyury (A), PDGFRa (B), Tbx6 (C), Msgn1 (D) measured by Q RT-PCR in HUES1 undifferentiated or cultured in 15% FBS containing medium with or without Rspo3 for up to 10 days. Relative expression to undifferentiated HUES1 cells is shown (fold induction).
Total RNA was extracted from ES cell cultures using Trizol (Invitrogen) or with the Rnaeasy plus mini-kit (Qiagen). RT-PCR was performed on 5 ng total RNA using QuantiFast SYBR Green RT-PCR Kit (Qiagen), appropriate primers and run on a LightCycler 480II (Roche). GAPDH was used as the internal control.
Next, to confirm that R-spondin also induces paraxial mesoderm progenitors (iPAM) cells from human ES cells differentiation, HUES1 cells were plated as single cells and differentiated in 15% FBS containing medium with or without Rspo3. qRT-PCR time course analysis for paraxial mesoderm progenitor markers expression was performed (FIG. 10).

Cc1c[nH]c(-c2cnc(NCCNc3ccc(C#N)cn3)nc2-c2ccc(Cl)cc2Cl)n1 [CHIR99021, reference compound]
effect on number of YFP+ cells (iPAM induction) (Msgn1RepV mouse ES cells; 15% FBS medium): as efficient as Rspo-3

C[S+](C)[O-] [DMSO, Dimethyl sulfoxide, reference compound]
effect on number of YFP+ cells (iPAM induction) (Msgn1RepV mouse ES cells; 15% FBS medium): increase of YFP+ cells

c1cc(-c2cnn3cc(-c4ccc(OCCN5CCCCC5)cc4)cnc23)ccn1 [Dorsomorphin, 6-[4-(2-Piperidin-1-yl-ethoxy)phenyl]-3-pyridin-4-yl-pyrazolo [1,5-a]pyrimidine, reference compound]
iPAM maturation, PSM specific marker expression (BMP4): promoting induced paraxial mesoderm progenitors (iPAM) maturation

B1: Follistatin: recombinant protein BMP inhibitor (protein, UniProt P19883 30-344, looked up)
Follistatin: GNCWLRQAKNGRCQVLYKTELSKEECCSTGRLSTSWTEEDVNDNTLFKWMIFNGGAPNCIPCKETCENVDCGPGKKCRMNKKNKPRCVCAPDCSNITWKGPVCGLDGKTYRNECALLKARCKEQPELEVQYQGRCKKTCRDVFCPGSSTCVVDQTNNAYCVTCNRICPEPASSEQYLCGNDGVTYSSACHLRKATCLLGRSIGLAYEGKCIKAKSCEDIQCTGGKKCLWDFKVGRGRCSLCDELCPDSKSDEPVCASDNATYASECAMKEAACSSGVLLEVKHSGSCNSISEDTEEEEEDEDQDYSFPISSILEW
iPAM maturation, PSM specific marker expression (BMP4): promoting induced paraxial mesoderm progenitors (iPAM) maturation

B2: Dkk1: secreted extracellular Wnt antagonist, canonical Wnt inhibitor (protein, UniProt O94907 32-266, looked up)
Dickkopf-related protein 1: TLNSVLNSNAIKNLPPPLGGAAGHPGSAVSAAPGILYPGGNKYQTIDNYQPYPCAEDEECGTDEYCASPTRGGDAGVQICLACRKRRKRCMRHAMCCPGNYCKNGICVSSDQNHFRGEIEETITESFGNDHSTLDGYSRRTTLSSKMYHTKGQEGSVCLRSSDCASGLCCARHFWSKICKPVLKEGQVCTKHRRKGSHGLEIFQRCYCGEGLSCRIQKDHHQASNSSRLHTCQRH
effect on number of YFP+ cells (iPAM induction) (Msgn1RepV mouse ES cells; 15% FBS medium): sharp decrease of YFP+ induction

B3: Noggin: recombinant protein known to inhibit BMP4 (protein, UniProt Q13253 28-232, looked up)
Noggin: QHYLHIRPAPSDNLPLVDLIEHPDPIFDPKEKDLNETLLRSLLGGHYDPGFMATSPPEDRPGGGGGAAGGAEDLAELDQLLRQRPSGAMPSEIKGLEFSEGLAQGKKQRLSKKLRRKLQMWLWSQTFCPVLYAWNDLGSRFWPRYVKVGSCFSKRSCSVPEGMVCKPSKSVHLTVLRWRCQRRGGQRCGWIPIQYPIISECKCSC
total number of Msgn1-YFP+ iPAM cells or total cell number in culture (Msgn1RepV mouse ES cells; added to differentiation medium): does not change the total number | iPAM maturation, PSM specific marker expression (BMP4): upregulation of several PSM specific markers; also recorded: promoting induced paraxial mesoderm progenitors (iPAM) maturation | BMP4 expression in Msgn1-YFP+ cells (BMP4; added to differentiation medium with Rspo3 and DMSO, day 3 and 4): effectively repress BMP4 expression; also recorded: represses BMP4 expression

B4: R-spondin3: secreted protein of the R-spondin family that activates the Wnt signaling pathway; recombinant (protein, UniProt Q9BXY4 22-272, looked up)
R-spondin-3: QNASRGRRQRRMHPNVSQGCQGGCATCSDYNGCLSCKPRLFFALERIGMKQIGVCLSSCPSGYYGTRYPDINKCTKCKADCDTCFNKNFCTKCKSGFYLHLGKCLDNCPEGLEANNHTMECVSIVHCEVSEWNPWSPCTKKGKTCGFKRGTETRVREIIQHPSAKGNLCPPTNETRKCTVQRKKCQKGERGKKGRERKRKKPNKGESKEAIPDSKSLESSKEIPEQRENKQQQKKRKVQDKQKSVSVSTVH
induction of YFP+ cells (Msgn1RepV mouse ES cells; 10 ng/mL, both FBS based and KSR based medium, 4 days): up to 70% | effect on number of YFP+ cells (iPAM induction) (Msgn1RepV mouse ES cells; 15% FBS medium): significantly increase the number of YFP+ cells | YFP+ population of the total population (Msgn1RepV mouse ES cells; day 4 of differentiation, 15% FBS medium, R-spondin3 10 ng/mL): more than 70% | luciferase from BAT-luc canonical Wnt reporter (canonical Wnt signaling): strongly activated | luciferase from BAT-luc canonical Wnt reporter (canonical Wnt signaling; listed as Rspo3): strongly activates the canonical Wnt response | expression of paraxial mesoderm progenitor markers (qRT-PCR) (HUES1 cells): induction of the paraxial mesoderm progenitor markers, Brachyury, PDGFRa, Tbx6 and Msgn1 is observed; also recorded: Strong activation of Msgn1 and Tbx6

B5: R-spondin2: secreted protein of the R-spondin family that activates the Wnt signaling pathway; recombinant (protein, UniProt Q6UXX9 22-243, looked up)
R-spondin-2: QGNRWRRSKRASYVSNPICKGCLSCSKDNGCSRCQQKLFFFLRREGMRQYGECLHSCPSGYYGHRAPDMNRCARCRIENCDSCFSKDFCTKCKVGFYLHRGRCFDECPDGFAPLEETMECVEGCEVGHWSEWGTCSRNNRTCGFKWGLETRTRQIVKKPVKDTILCPTIAESRRCKMTMRHCPGGKRTPKAKEKRNKKKKRKLIERAQEQHSVFLATDRANQ
effect on number of YFP+ cells (iPAM induction) (Msgn1RepV mouse ES cells; 15% FBS medium): significantly increase the number of YFP+ cells
